Consider one molecule from patent EP4559472A1 (Universität Ulm, dated 2025).

The target in this assay is T1, Biotinylated C4d (UniProt P0C0L4 957-1336, limits assumed, biotinylated (thioester moiety; NHS-PEG4-Biotin Kit)).
T1 construct: domain: C4d; also called C4d (biotinylated, on streptavidin sensor chip)
T1 sequence (looked up): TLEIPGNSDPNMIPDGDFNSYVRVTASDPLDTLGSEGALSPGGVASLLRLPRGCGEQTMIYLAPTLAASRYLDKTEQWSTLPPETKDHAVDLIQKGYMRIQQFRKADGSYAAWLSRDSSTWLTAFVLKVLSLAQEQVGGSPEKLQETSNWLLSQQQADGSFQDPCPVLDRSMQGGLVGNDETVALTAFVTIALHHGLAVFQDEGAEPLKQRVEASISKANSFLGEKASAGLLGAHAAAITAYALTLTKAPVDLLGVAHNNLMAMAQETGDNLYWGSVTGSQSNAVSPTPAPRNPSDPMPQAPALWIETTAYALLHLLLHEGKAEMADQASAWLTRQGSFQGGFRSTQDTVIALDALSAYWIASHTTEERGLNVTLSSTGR
Kind of assay: SPR, biotinylated C4d on streptavidin chip.

B1: FH(15-18) (other, human, UniProt P08603 868-1104, looked up)
chain: IPCSQPPQIEHGTINSSRSSQESYAHGTKLSYTCEGGFRISEENETTCYMGKWSSPPQCEGLPCKSPPEISHGVVAHMSDSYQYGEEVTYKCFEGFGIDGPAIAKCLGEKWSHPPSCIKTDCLSLPSFENAIPMGEKKDVYKAGEQVTYTCATYYKMDGASNVTCINSRWTGRPTCRDTSCVNPPTVQNAYIVSRQMSKYPSGERVRYQCRSPYEMFGDEEVMCLNGNWTEPPQCKD
notes: domain: protein domains 15-18; Control protein; also called protein domains 15-18 of FH
In the case of B1, the binding result is reported as “no binding”.
